Changes are numbered by the printed parent chain.
T1: human DR4 (Death Receptor 4), cell surface expressed on human tumor cell lines (human, UniProt O00220 24-468)
T1 construct: also called TNFRSF10A; TRAIL-R1
T1 sequence: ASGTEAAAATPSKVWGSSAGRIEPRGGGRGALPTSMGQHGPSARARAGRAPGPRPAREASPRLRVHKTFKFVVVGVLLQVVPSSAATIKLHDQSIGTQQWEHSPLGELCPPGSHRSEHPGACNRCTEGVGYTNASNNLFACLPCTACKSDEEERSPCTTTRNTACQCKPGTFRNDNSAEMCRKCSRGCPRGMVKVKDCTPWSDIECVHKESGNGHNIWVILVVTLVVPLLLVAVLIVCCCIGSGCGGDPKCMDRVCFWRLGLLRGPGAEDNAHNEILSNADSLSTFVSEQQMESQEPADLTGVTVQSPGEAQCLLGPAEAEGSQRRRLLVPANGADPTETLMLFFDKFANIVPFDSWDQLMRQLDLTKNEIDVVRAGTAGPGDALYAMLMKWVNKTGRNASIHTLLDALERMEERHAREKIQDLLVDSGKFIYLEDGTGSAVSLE

T2: human FAPα (Fibroblast activation protein alpha), cell surface expressed (human, UniProt Q12884 1-760)
T2 construct: Endogenous on human lung fibroblasts and CAFs
T2 sequence: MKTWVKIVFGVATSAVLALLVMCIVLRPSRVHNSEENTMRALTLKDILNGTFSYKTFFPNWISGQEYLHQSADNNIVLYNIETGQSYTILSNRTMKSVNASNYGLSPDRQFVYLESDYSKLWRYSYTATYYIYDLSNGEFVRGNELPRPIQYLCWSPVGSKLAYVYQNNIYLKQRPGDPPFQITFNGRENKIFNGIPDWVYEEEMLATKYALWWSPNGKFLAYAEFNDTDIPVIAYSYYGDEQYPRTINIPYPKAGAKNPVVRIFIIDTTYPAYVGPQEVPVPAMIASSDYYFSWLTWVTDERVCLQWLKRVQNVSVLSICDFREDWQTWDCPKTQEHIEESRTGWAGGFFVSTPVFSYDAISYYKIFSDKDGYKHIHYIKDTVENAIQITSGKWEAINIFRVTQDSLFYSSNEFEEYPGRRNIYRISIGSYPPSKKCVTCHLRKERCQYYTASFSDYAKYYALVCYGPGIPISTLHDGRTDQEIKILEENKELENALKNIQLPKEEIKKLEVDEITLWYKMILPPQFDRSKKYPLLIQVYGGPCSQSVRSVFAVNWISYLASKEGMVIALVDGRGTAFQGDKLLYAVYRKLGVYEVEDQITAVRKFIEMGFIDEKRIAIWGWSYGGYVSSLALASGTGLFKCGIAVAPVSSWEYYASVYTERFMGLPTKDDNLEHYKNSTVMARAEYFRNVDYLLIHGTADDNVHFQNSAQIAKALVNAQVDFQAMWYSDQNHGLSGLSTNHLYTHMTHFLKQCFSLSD

B1: IgG1-DR4-FERR (antibody, V domains shown)
VH: QVQLQESGPGLVKPSGTLSLTCAVSGGSISSYSWWSWIRQPPGKGLEWIGELYHSGSTNYNPSLKSRVTISVDKSKNQFSLKLRSVTAADTAVYYCVRGVATIDYWGQGTLVTVSS
VL: QSALTQPPSASGSPGQSVTISCTGTSSDVGGYNFVSWYQQDPGKAPKLLIYEVTKRPSGVPDRFSGSKSGNTASLTVSGLQAEDEADYYCSSYAGSNNVMFGGGTKLTVLG
notes: Bivalent monoclonal IgG1 lambda
B2: BisG1-FAPα-FERL/b12-FERR (bispecific antibody, human IgG1, kappa)
heavy 1: EVQLLESGGGLVQPGGSPRLSCEASGFTFSSYALSWVRQAPGKGLEWVSAISGSGGGRYYADSVKGRFTISRDNSKNTLFLQMNSLRAEDTAVYYCAKEGYSSSGTYWDHWGQGTLVTVSSASTKGPSVFPLAPSSKSTSGGTAALGCLVKDYFPEPVTVSWNSGALTSGVHTFPAVLQSSGLYSLSSVVTVPSSSLGTQTYICNVNHKPSNTKVDKRVEPKSCDKTHTCPPCPAPEFERGPSVFLFPPKPKDTLMISRTPEVTCVVVDVSHEDPEVKFNWYVDGVEVHNAKTKPREEQYNSTYRVVSVLTVLHQDWLNGKEYKCKVSNKALPAPIEKTISKAKGQPREPQVYTLPPSREEMTKNQVSLTCLVKGFYPSDIAVEWESNGQPENNYKTTPPVLDSDGSFLLYSKLTVDKSRWQQGNVFSCSVMHEALHNHYTQKSLSLSPG
light 1: AIQMTQSPSSVSASVGDRVTITCRASQGVSSWLAWYQQKPGRAPKLLIYVASTLQSGVPSRFSGSGSGTDFTLTINSLQPEDFATYYCQQANSFPPTFGQGTRLEMKRTVAAPSVFIFPPSDEQLKSGTASVVCLLNNFYPREAKVQWKVDNALQSGNSQESVTEQDSKDSTYSLSSTLTLSKADYEKHKVYACEVTHQGLSSPVTKSFNRGEC
heavy 2: QVQLVQSGAEVKKPGASVKVSCQASGYRFSNFVIHWVRQAPGQRFEWMGWINPYNGNKEFSAKFQDRVTFTADTSANTAYMELRSLRSADTAVYYCARVGPYSWDDSPQDNYYMDVWGKGTTVIVSSASTKGPSVFPLAPSSKSTSGGTAALGCLVKDYFPEPVTVSWNSGALTSGVHTFPAVLQSSGLYSLSSVVTVPSSSLGTQTYICNVNHKPSNTKVDKRVEPKSCDKTHTCPPCPAPEFERGPSVFLFPPKPKDTLMISRTPEVTCVVVDVSHEDPEVKFNWYVDGVEVHNAKTKPREEQYNSTYRVVSVLTVLHQDWLNGKEYKCKVSNKALPAPIEKTISKAKGQPREPQVYTLPPSREEMTKNQVSLTCLVKGFYPSDIAVEWESNGQPENNYKTTPPVLDSDGSFFLYSRLTVDKSRWQQGNVFSCSVMHEALHNHYTQKSLSLSPG
light 2: EIVLTQSPGTLSLSPGERATFSCRSSHSIRSRRVAWYQHKPGQAPRLVIHGVSNRASGISDRFSGSGSGTDFTLTITRVEPEDFALYYCQVYGASSYTFGQGTKLERKRTVAAPSVFIFPPSDEQLKSGTASVVCLLNNFYPREAKVQWKVDNALQSGNSQESVTEQDSKDSTYSLSSTLTLSKADYEKHKVYACEVTHQGLSSPVTKSFNRGEC
B3: BisG1-b12-FERL/DR4-FERR (bispecific antibody, human IgG1, kappa, lambda)
heavy 1: B2 heavy 2 with F415L, R419K
light 1: B2 light 2
heavy 2: QVQLQESGPGLVKPSGTLSLTCAVSGGSISSYSWWSWIRQPPGKGLEWIGELYHSGSTNYNPSLKSRVTISVDKSKNQFSLKLRSVTAADTAVYYCVRGVATIDYWGQGTLVTVSSASTKGPSVFPLAPSSKSTSGGTAALGCLVKDYFPEPVTVSWNSGALTSGVHTFPAVLQSSGLYSLSSVVTVPSSSLGTQTYICNVNHKPSNTKVDKRVEPKSCDKTHTCPPCPAPEFERGPSVFLFPPKPKDTLMISRTPEVTCVVVDVSHEDPEVKFNWYVDGVEVHNAKTKPREEQYNSTYRVVSVLTVLHQDWLNGKEYKCKVSNKALPAPIEKTISKAKGQPREPQVYTLPPSREEMTKNQVSLTCLVKGFYPSDIAVEWESNGQPENNYKTTPPVLDSDGSFFLYSRLTVDKSRWQQGNVFSCSVMHEALHNHYTQKSLSLSPG
light 2: QSALTQPPSASGSPGQSVTISCTGTSSDVGGYNFVSWYQQDPGKAPKLLIYEVTKRPSGVPDRFSGSKSGNTASLTVSGLQAEDEADYYCSSYAGSNNVMFGGGTKLTVLGQPKAAPSVTLFPPSSEELQANKATLVCLISDFYPGAVTVAWKADSSPVKAGVETTTPSKQSNNKYAASSYLSLTPEQWKSHRSYSCQVTHEGSTVEKTVAPTECS
notes: Fab-arm exchange of IgG1-b12-FERL and IgG1-DR4-FERR; also called bsIgG1-ctrl-FERLxDR4-FERR
B4: IgG1-FAPα-FERL (antibody)
heavy: B2 heavy 1
light: B2 light 1
notes: Bivalent monoclonal IgG1 kappa

Tests used:
[1] = target: T1, human DR4 (Death Receptor 4), cell …; assay: flow cytometry, DLD-1 cells, n = 3
[2] = target: T1, human DR4 (Death Receptor 4), cell …; assay: flow cytometry, HCT-15 cells, n = 2
[3] = target: T1, human DR4 (Death Receptor 4), cell …; assay: flow cytometry, MDA-MB-231 cells, n = 1
[4] = target: T1, human DR4 (Death Receptor 4), cell …; assay: flow cytometry, MDA-MB-231 cells, n = 2
[5] = target: T1, human DR4 (Death Receptor 4), cell …; assay: flow cytometry, DLD-1 cells, average ± SEM
[6] = target: T1, human DR4 (Death Receptor 4), cell …; assay: flow cytometry, HCT-116 cells, average ± SEM
[7] = target: T2, human FAPα (Fibroblast activation …); assay: flow cytometry, human lung fibroblasts, n = 1
Procedure: (§1) Binding of bispecific or monoclonal antibodies carrying the anti-FAPα arm derived from IgG1-FAPα-FERL (BisG1-FAPα-FERL/DR4-FERR, BisG1-FAPα-FERL/b12-FERR, and IgG1-FAPα-FERL) to cell surface expressed human FAPα was analyzed by flow cytometry using human lung fibroblasts and CAFs, which endogenously express FAPα. BisG1-b12-FERL/b12-FERR was used as negative control.
(§2) Human lung fibroblasts and CAFs (50,000 cells/well) were seeded in 96-Well round bottom plates (Greiner Bio-one, Cat #650101). Antibody dilutions were prepared using fluorescence-activated cell sorting (FACS) buffer, consisting of phosphate buffer saline (PBS, Lonza, Cat #BE17-517Q)+1% Bovine Serum Albumin (BSA, Roche, Cat #10735086001)+0.02% Sodium Azide (Bio-World, Cat #41920044-3). Plates were centrifuged, supernatant was removed, cells were resuspended in 50 μL of human Fc Block (BD, Cat #564220, diluted 1:100 in FACS buffer) and 50 μL of viability stain TO-PRO-3 Iodide (Thermo Fisher, Cat #T3605, diluted 1: 25,000 in FACS buffer), and incubated for 15 min at 4° C. Plates were washed three times with FACS buffer. Plates were centrifuged, supernatant was removed, cells were resuspended in 50 μL of antibody dilutions (concentration range 90-0.0005 μg/mL, three-fold dilution steps using FACS buffer) of BisG1-FAPα-FERL/DR4-FERR, BisG1-FAPα-FERL/b12-FERR, BisG1-b12-FERL/b12-FERR (top six concentrations only for CAFs culture) or IgG1-FAPα-FERL (top four concentrations only for CAFs culture) and incubated for 30 min at 4° C. Cells were washed three times with FACS buffer and resuspended in 50 μL of Fluorescein isothiocyanate (FITC)-labeled polyclonal antibody goat anti-mouse IgG1 (Jackson Immuno Research, Cat #109-096-097, diluted 1:100 in FACS buffer). […] Antibody binding to viable cells (TO-PRO-3 negative) was analyzed by flow cytometry on a FACSCelesta™ (BD biosciences) and data were processed using FlowJo_v10.8.1 (FlowJo LLC). Geomean fluorescence intensity, gMFI, was determined and visualized using GraphPad Prism.

[8] = target: T2, human FAPα (Fibroblast activation …); assay: flow cytometry, human lung fibroblasts, average ± SEM
Procedure: as §1, §2

| Binder | EC50 [1] | EC50 [2] | EC50 [3] | EC50 [4] | EC50 [5] | EC50 [6] | EC50 [7] | EC50 [8] |
| --- | --- | --- | --- | --- | --- | --- | --- | --- |
| B1 | 0.23 µg/mL | 0.17 µg/mL | 0.33 µg/mL | 0.27 µg/mL | 0.26 µg/mL | 0.16 µg/mL |  |  |
| B2 |  |  |  |  |  |  | 0.043 µg/mL | 0.041 µg/mL |
| B3 | 0.64 µg/mL | 0.57 µg/mL | 1.14 µg/mL | 1 µg/mL | 0.72 µg/mL | 0.57 µg/mL |  |  |
| B4 |  |  |  |  |  |  | 0.016 µg/mL | 0.015 µg/mL |

Reference: US20250002610A1 (Genmab, published 2025)
